These results are taken from patent US20080241172A1 (CENTRE NATIONAL DE LA RECHERCHE SCIENTIFIQUE, published 2008).

Changes are numbered by the printed parent chain. Names and notes keep the numbering of the source.

B1: Torpedo AChET mutant S19C (containing two cysteines at positions 19 and 37) (enzyme)
chain: DDDSELLVNTKSGKVMRTRIPVLSSHISAFLGIPFAEPPVGNMRFRRPEPKKPWSGVWNASTYPNNCQQYVDEQFPGFPGSEMWNPNREMSEDCLYLNIWVPSPRPKSATVMLWIYGGGFYSGSSTLDVYNGKYLAYTEEVVLVSLSYRVGAFGFLALHGSQEAPGNMGLLDQRMALQWVHDNIQFFGGDPKTVTLFGESAGRASVGMHILSPGSRDLFRRAILQSGSPNCPWASVSVAEGRRRAVELRRNLNCNLNSDEDLIQCLREKKPQELIDVEWNVLPFDSIFRFSFVPVIDGEFFPTSLESMLNAGNFKKTQILLGVNKDEGSFFLLYGAPGFSKDSESKISREDFMSGVKLSVPHANDLGLDAVTLQYTDWMDDNNGIKNRDGLDDIVGDHNVICPLMHFVNKYTKFGNGTYLYFFNHRASNLVWPEWMGVIHGYEIEFVFGLPLVKELNYTAEEEALSRRIMHYWATFAKTGNPNEPHSQESKWPLFTTKEQKFIDLNTEPIKVHQRLRVQMCVFWNQFLPKLLNATETIDEAERQWKTEFHRWSCYMMHWKNQFDQYSRHENCAEL
notes: It may include a signal peptide; also called mutated torpedo AChE
B2: Torpedo AChET mutant with H34 of the t peptide replaced by a cysteine (enzyme)
chain: B1 chain with C554S, H569C
B3: Torpedo AChET mutant with M21 of the t peptide replaced by a cysteine, with mutation of C37 (C37S) (enzyme)
chain: B1 chain with C554S, M556C, C572S
notes: also called M21 with C37S
B4: Torpedo AChET mutant with M22 of the t peptide replaced by a cysteine, with mutation of C37 (C37S) (enzyme)
chain: B1 chain with C554S, M557C, C572S
notes: also called M22 with C37S
B5: Torpedo AChET mutant with residue 3 of the t peptide replaced by a cysteine, with mutation of C37 (C37S) (enzyme)
chain: B1 chain with I538C, C554S, C572S
notes: also called 13 (printed; read as I3) with C37S
B6: Torpedo AChET mutant with T12 of the t peptide replaced by a cysteine, with mutation of C37 (C37S) (enzyme)
chain: B1 chain with T547C, C554S, C572S
notes: also called T12 with C37S
B7: Torpedo AChET mutant with H34 of the t peptide replaced by a cysteine, with mutation of C37 (C37S) (enzyme)
chain: B1 chain with C554S, H569C, C572S
notes: also called H34 with C37S
B8: Torpedo AChET mutant with A6 of the t peptide replaced by a cysteine, with mutation of C37 (C37S) (enzyme)
chain: B1 chain with A541C, C554S, C572S
notes: also called A6 with C37S
B9: Torpedo AChET mutant with A6 of the t peptide replaced by a cysteine (enzyme)
chain: B1 chain with A541C, C554S
B10: Torpedo AChET mutant with residue 3 of the t peptide replaced by a cysteine (enzyme)
chain: B1 chain with I538C, C554S
notes: also called 13 (printed; read as I3)
B11: Torpedo AChET mutant with M21 of the t peptide replaced by a cysteine (enzyme)
chain: B1 chain with C554S, M556C
B12: Torpedo AChET mutant with M22 of the t peptide replaced by a cysteine (enzyme)
chain: B1 chain with C554S, M557C
B13: Torpedo AChET mutant S19C/C37S (enzyme)
chain: B1 chain with C572S
notes: also called S19 with C37S
B14: Torpedo AChET mutant T12C (enzyme)
chain: B1 chain with T547C, C554S
B15: wild type Torpedo AChET (enzyme)
chain: B1 chain with C554S
notes: The wild type is built by undoing that change; Expressed in transfected COS cells; cell extracts and medium were analysed; also called wild type AChET subunits
B16: Torpedo AChET mutant C37S (enzyme)
chain: B1 chain with C554S, C572S

The first data set deals with the molecule itself. Nature of the data set: homodimers from transfected COS cells; sedimentation in sucrose gradients. On the procedure:
(§1) COS cells were transfected by the DEAE-dextran method, as previously described (Bon et al., 1997), using 4 μg of DNA encoding the AChE catalytic subunit and 4 μg of DNA encoding QN or PRAD-deleted QN, per 100 mm dish. Because Torpedo AChE folds into its active conformation at 27° C., but not at 37° C., the cells were incubated for two days at 37° C. after transfection, then transferred to 27° C. and maintained at this temperature for 3-4 days, in a medium containing 10% Nuserum (Inotech, Dottikon, Switzerland), which had been pretreated with 10⁻⁶ M soman to inactivate serum choline sterases.
(§2) Centrifugation was performed in 5-20% sucrose gradients (50 mM Tris-HCl, pH 7.5, 50 mM MgCl₂, either in the presence of 0.2% Brij-97 or in the presence of 0.2% Triton X-100) in a Beckman SW41 rotor, at 36,000 rpm, for 18 h at 6° C. The gradients contained Escherichia coli β-galactosidase (16 S) and alkaline phosphatase (6.1 S) as internal sedimentation standards (Bon et al., 1997). Amphiphilic molecules generally sediment faster in the presence of Triton X100 than of Brij-97, providing an indication on their amphiphilic character.
Regarding B1, the binding result was “binds”. In the case of B2, the binding result is given as “binds”. As for B3, the binding result is “binds”. As for B4, the binding result was “binds”. In the case of B5, the binding result is given as “binds”. For the protein B6, the binding result was “binds”. Regarding B7, the binding result was “binds”. With B8, the binding result was “binds”. B9: the binding result is given as “binds”.

Take B10: the binding result is recorded as “binds”. Same read-out and setting: the same measure for B11: “binds”.

On to B12, for which the binding result is on record as “binds”. For the protein B13, the binding result is “binds”.

Another data set deals with the molecule itself. Kind of data set: homo-oligomers from transfected COS cells; sedimentation in sucrose gradients. On the procedure: as §1, §2
In the case of B14, the binding result is listed as “binds”.

For the protein B15, the binding result is reported as “binds”.

A further data set deals with the molecule itself. Kind of data set: homo-oligomers from transfected COS cells; sedimentation in sucrose gradients (tetramers still formed, dimers not). On the procedure:
as §1, §2
B16: the binding result is recorded as “binds”.
